Assay [1] deals with Coiled coil domain of UVRAG (228-276) (Mus musculus) (UniProt Q8K245). Nature of the assay: ITC. (In general: Isothermal titration calorimetry measures the heat released or taken up as one component is titrated into another.)
Assay [2] has as its target Coiled coil domain of Atg4L (Atg14L coiled coil) (Mus musculus (Mouse)) (UniProt Q8CDJ3). Nature of the assay: ITC.

Among the data in US20180002381A1 are Kd and fold stronger than wild-type Beclin1 values, retold here.

pKd: −log10 of the molar value.

Sequence of Coiled coil domain of UVRAG (228-276) (Mus musculus) (Q8K245 other isoform, or with tags, fused parts or gaps limits assumed): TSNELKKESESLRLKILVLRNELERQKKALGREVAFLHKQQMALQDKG
Sequence of Coiled coil domain of Atg4L (Atg14L coiled coil) (Mus musculus (Mouse)) (Q8CDJ3 other isoform, or with tags, fused parts or gaps limits assumed): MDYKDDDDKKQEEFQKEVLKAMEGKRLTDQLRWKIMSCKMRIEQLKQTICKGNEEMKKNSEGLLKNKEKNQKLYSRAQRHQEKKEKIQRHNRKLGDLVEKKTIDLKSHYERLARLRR

What is called pKd is the negative decadic logarithm of the Kd, by convention in mol/L. In assay [1], “Beclin1 mutant L241E/L245E (from UniProt Q91XJ1 174-266)” had a pKd of 8.00 and a fold stronger than wild-type Beclin1 of 20 times. Further, the negative-log Kd (pKd) in assay [2] was 6.30.
